{"source": "ChEMBL document CHEMBL1139388", "about": "“Crystal structure of the Homo sapiens kynureninase-3-hydroxyhippuric acid inhibitor complex: insights into the molecular basis of kynureninase substrate specificity” (J Med Chem, 2009)", "conditions_in_all_cases": "Homo sapiens", "key": {"[1]": {"substrate": "Nc1c(O)cccc1C(=O)CC(N)C(=O)O", "description": "(§1) Ratio of kcat to Km for human wild type kynureninase"}, "[2]": {"substrate": "Nc1ccccc1C(=O)C[C@H](N)C(=O)O", "description": "as §1"}, "[3]": {"substrate": "Nc1c(O)cccc1C(=O)CC(N)C(=O)O", "remark": "listed apart in the source", "description": "(§2) Activity of human wild type kynureninase"}, "[4]": {"substrate": "Nc1ccccc1C(=O)C[C@H](N)C(=O)O", "remark": "listed apart in the source", "description": "as §2"}, "[5]": {"substrate": "Nc1c(O)cccc1C(=O)CC(N)C(=O)O", "remark": "listed apart in the source", "description": "(§3) Activity of human kynureninase S332G/N333T mutant"}, "[6]": {"substrate": "Nc1ccccc1C(=O)C[C@H](N)C(=O)O", "remark": "listed apart in the source", "description": "as §3"}, "[7]": {"substrate": "Nc1c(O)cccc1C(=O)CC(N)C(=O)O", "remark": "listed apart in the source", "description": "(§4) Ratio of kcat to Km for human kynureninase S332G/N333T mutant"}, "[8]": {"substrate": "Nc1ccccc1C(=O)C[C@H](N)C(=O)O", "remark": "listed apart in the source", "description": "as §4"}, "[9]": {"substrate": "Nc1c(O)cccc1C(=O)CC(N)C(=O)O", "remark": "listed apart in the source", "description": "(§5) Ratio of kcat to Km for human kynureninase H102W/S332G/N333T mutant"}, "[10]": {"substrate": "Nc1ccccc1C(=O)C[C@H](N)C(=O)O", "remark": "listed apart in the source", "description": "as §5"}, "[11]": {"substrate": "Nc1ccccc1C(=O)C[C@H](N)C(=O)O", "remark": "listed apart in the source", "description": "Activity of human kynureninase H102W/S332G/N333T mutant"}, "[12]": {"substrate": "Nc1ccccc1C(=O)C[C@H](N)C(=O)O", "remark": "listed apart in the source", "description": "Activity of human kynureninase H102W/N333T mutant"}, "[13]": {"substrate": "Nc1c(O)cccc1C(=O)CC(N)C(=O)O", "remark": "listed apart in the source", "description": "(§6) Ratio of kcat to Km for human kynureninase H102W/N333T mutant"}, "[14]": {"substrate": "Nc1ccccc1C(=O)C[C@H](N)C(=O)O", "remark": "listed apart in the source", "description": "as §6"}, "[15]": {"substrate": "Nc1c(O)cccc1C(=O)CC(N)C(=O)O", "remark": "listed apart in the source", "description": "(§7) Ratio of kcat to Km for human kynureninase N333T mutant"}, "[16]": {"substrate": "Nc1ccccc1C(=O)C[C@H](N)C(=O)O", "remark": "listed apart in the source", "description": "as §7"}, "[17]": {"substrate": "Nc1c(O)cccc1C(=O)CC(N)C(=O)O", "remark": "listed apart in the source", "description": "(§8) Activity of human kynureninase N333T mutant"}, "[18]": {"substrate": "Nc1ccccc1C(=O)C[C@H](N)C(=O)O", "remark": "listed apart in the source", "description": "as §8"}}, "data": [{"protein": "Kynureninase (Homo sapiens), Q16719 (protein) MEPSSLELPADTVQRIAAELKCHPTDERVALHLDEEDKLRHFRECFYIPKIQDLPPVDLSLVNKDENAIYFLGNSLGLQPKMVKTYLEEELDKWAKIAAYGHEVGKRPWITGDESIVGLMKDIVGANEKEIALMNALTVNLHLLMLSFFKPTPKRYKILLEAKAFPSDHYAIESQLQLHGLNIEESMRMIKPREGEETLRIEDILEVIEKEGDSIAVILFSGVHFYTGQHFNIPAITKAGQAKGCYVGFDLAHAVGNVELYLHDWGVDFACWCSYKYLNAGAGGIAGAFIHEKHAHTIKPALVGWFGHELSTRFKMDNKLQLIPGVCGFRISNPPILLVCSLHASLEIFKQATMKALRKKSVLLTGYLEYLIKHNYGKDKAATKKPVVNIITPSHVEERGCQLTITFSVPNKDVFQELEKRGVVCDKRNPNGIRVAPVPLYNSFHDVYKFTNLLTSILDSAETKN", "values": [{"measurement": "kcat/Km", "setting": "[1]", "value": 1.23, "unit": "×10⁵ /M/s"}, {"measurement": "kcat/Km", "setting": "[2]", "value": 465, "unit": "M⁻¹ s⁻¹"}, {"measurement": "Km", "setting": "[3]", "value": 28.3, "unit": "µM"}, {"measurement": "kcat", "setting": "[3]", "value": 3.5, "unit": "s⁻¹"}, {"measurement": "Km", "setting": "[4]", "value": 495, "unit": "µM"}, {"measurement": "kcat", "setting": "[4]", "value": 0.23, "unit": "s⁻¹"}]}, {"protein": "Kynureninase (Homo sapiens), Q16719 S332G,N333T (protein) MEPSSLELPADTVQRIAAELKCHPTDERVALHLDEEDKLRHFRECFYIPKIQDLPPVDLSLVNKDENAIYFLGNSLGLQPKMVKTYLEEELDKWAKIAAYGHEVGKRPWITGDESIVGLMKDIVGANEKEIALMNALTVNLHLLMLSFFKPTPKRYKILLEAKAFPSDHYAIESQLQLHGLNIEESMRMIKPREGEETLRIEDILEVIEKEGDSIAVILFSGVHFYTGQHFNIPAITKAGQAKGCYVGFDLAHAVGNVELYLHDWGVDFACWCSYKYLNAGAGGIAGAFIHEKHAHTIKPALVGWFGHELSTRFKMDNKLQLIPGVCGFRIGTPPILLVCSLHASLEIFKQATMKALRKKSVLLTGYLEYLIKHNYGKDKAATKKPVVNIITPSHVEERGCQLTITFSVPNKDVFQELEKRGVVCDKRNPNGIRVAPVPLYNSFHDVYKFTNLLTSILDSAETKN", "values": [{"measurement": "Km", "setting": "[5]", "value": "> 510", "unit": "µM"}, {"measurement": "kcat", "setting": "[5]", "value": "< 10.9", "unit": "×10⁻³ /s"}, {"measurement": "Km", "setting": "[6]", "value": 540, "unit": "µM"}, {"measurement": "kcat", "setting": "[6]", "value": 0.017, "unit": "s⁻¹"}, {"measurement": "kcat/Km", "setting": "[7]", "value": 21.5, "unit": "M⁻¹ s⁻¹"}, {"measurement": "kcat/Km", "setting": "[8]", "value": 31.4, "unit": "M⁻¹ s⁻¹"}]}, {"protein": "Kynureninase (Homo sapiens), Q16719 H102W,S332G,N333T (protein) MEPSSLELPADTVQRIAAELKCHPTDERVALHLDEEDKLRHFRECFYIPKIQDLPPVDLSLVNKDENAIYFLGNSLGLQPKMVKTYLEEELDKWAKIAAYGWEVGKRPWITGDESIVGLMKDIVGANEKEIALMNALTVNLHLLMLSFFKPTPKRYKILLEAKAFPSDHYAIESQLQLHGLNIEESMRMIKPREGEETLRIEDILEVIEKEGDSIAVILFSGVHFYTGQHFNIPAITKAGQAKGCYVGFDLAHAVGNVELYLHDWGVDFACWCSYKYLNAGAGGIAGAFIHEKHAHTIKPALVGWFGHELSTRFKMDNKLQLIPGVCGFRIGTPPILLVCSLHASLEIFKQATMKALRKKSVLLTGYLEYLIKHNYGKDKAATKKPVVNIITPSHVEERGCQLTITFSVPNKDVFQELEKRGVVCDKRNPNGIRVAPVPLYNSFHDVYKFTNLLTSILDSAETKN", "values": [{"measurement": "kcat/Km", "setting": "[9]", "value": "< 0.0165", "unit": "M⁻¹ s⁻¹"}, {"measurement": "kcat/Km", "setting": "[10]", "value": 126, "unit": "M⁻¹ s⁻¹"}, {"measurement": "Km", "setting": "[11]", "value": 143, "unit": "µM"}, {"measurement": "kcat", "setting": "[11]", "value": 0.018, "unit": "s⁻¹"}]}, {"protein": "Kynureninase (Homo sapiens), Q16719 H102W,N333T (protein) MEPSSLELPADTVQRIAAELKCHPTDERVALHLDEEDKLRHFRECFYIPKIQDLPPVDLSLVNKDENAIYFLGNSLGLQPKMVKTYLEEELDKWAKIAAYGWEVGKRPWITGDESIVGLMKDIVGANEKEIALMNALTVNLHLLMLSFFKPTPKRYKILLEAKAFPSDHYAIESQLQLHGLNIEESMRMIKPREGEETLRIEDILEVIEKEGDSIAVILFSGVHFYTGQHFNIPAITKAGQAKGCYVGFDLAHAVGNVELYLHDWGVDFACWCSYKYLNAGAGGIAGAFIHEKHAHTIKPALVGWFGHELSTRFKMDNKLQLIPGVCGFRISTPPILLVCSLHASLEIFKQATMKALRKKSVLLTGYLEYLIKHNYGKDKAATKKPVVNIITPSHVEERGCQLTITFSVPNKDVFQELEKRGVVCDKRNPNGIRVAPVPLYNSFHDVYKFTNLLTSILDSAETKN", "values": [{"measurement": "Km", "setting": "[12]", "value": 327, "unit": "µM"}, {"measurement": "kcat", "setting": "[12]", "value": 0.007, "unit": "s⁻¹"}, {"measurement": "kcat/Km", "setting": "[13]", "value": "< 0.0165", "unit": "M⁻¹ s⁻¹"}, {"measurement": "kcat/Km", "setting": "[14]", "value": 21.4, "unit": "M⁻¹ s⁻¹"}]}, {"protein": "Kynureninase (Homo sapiens), Q16719 N333T (protein) MEPSSLELPADTVQRIAAELKCHPTDERVALHLDEEDKLRHFRECFYIPKIQDLPPVDLSLVNKDENAIYFLGNSLGLQPKMVKTYLEEELDKWAKIAAYGHEVGKRPWITGDESIVGLMKDIVGANEKEIALMNALTVNLHLLMLSFFKPTPKRYKILLEAKAFPSDHYAIESQLQLHGLNIEESMRMIKPREGEETLRIEDILEVIEKEGDSIAVILFSGVHFYTGQHFNIPAITKAGQAKGCYVGFDLAHAVGNVELYLHDWGVDFACWCSYKYLNAGAGGIAGAFIHEKHAHTIKPALVGWFGHELSTRFKMDNKLQLIPGVCGFRISTPPILLVCSLHASLEIFKQATMKALRKKSVLLTGYLEYLIKHNYGKDKAATKKPVVNIITPSHVEERGCQLTITFSVPNKDVFQELEKRGVVCDKRNPNGIRVAPVPLYNSFHDVYKFTNLLTSILDSAETKN", "values": [{"measurement": "kcat/Km", "setting": "[15]", "value": 19.8, "unit": "M⁻¹ s⁻¹"}, {"measurement": "kcat/Km", "setting": "[16]", "value": 52.1, "unit": "M⁻¹ s⁻¹"}, {"measurement": "Km", "setting": "[17]", "value": "> 200", "unit": "µM"}, {"measurement": "kcat", "setting": "[17]", "value": "< 3.9", "unit": "×10⁻³ /s"}, {"measurement": "Km", "setting": "[18]", "value": 499, "unit": "µM"}, {"measurement": "kcat", "setting": "[18]", "value": 0.026, "unit": "s⁻¹"}]}]}
